{"source": "the nanobody polyreactivity screen of Harvey et al. (2022)", "data": [{"assay": "yeast display, Sf9 membrane polyspecificity reagent, FACS + sequencing; frameworks hold sequencing errors", "how_it_was_run": "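A nanobody's polyreactivity label depends on the gate it was sorted from. Yeast display cells were stained with 10% biotinylated, detergent-solubilized Sf9 membrane reagent for 1 hour at 4 °C, enriched on streptavidin microbeads and sorted by FACS. The low and high (top ~1%) gates were set on anti-HA fluorescence for expression and streptavidin fluorescence for reagent binding.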", "values": [{"sequence": "QVQLVESGGGLVQAGGSLRLSCAASGIIIGYYAMGWYRQAPGKERELVAAISSIGGSTYYADSVKGRFTISRDNAKNTVYLQMNSLKPEDTAVYYCAAKYYGRYYRYLGSSFDYWGQGTQVTVSS", "polyreactivity (PSR sort gate)": "high polyreactivity"}, {"sequence": "QVQLVESGGGLVQAGGSLRLSCAASGIIINTYLMGWYRQAPGKERELVAAISRRGGSTYYADSVKGRFTISRDNAKITVYLQMNSLKPEDTAFYYCAADVLYQQAGTYYWGQGTQVNVSS", "polyreactivity (PSR sort gate)": "high polyreactivity"}, {"sequence": "QVQLVESGGGLVQAGGSLRLSCAASGIIIRYYGMGWYRQAPGKERELVARIRWTGGSTYYADSVKGRFTISRDNAKNTVYLQMNSLKPEDTAVYYCAADIWQYSRIANYHPYDYWGQGTQVTVSS", "polyreactivity (PSR sort gate)": "low polyreactivity"}, {"sequence": "QVQLVESGGGLVQAGGSLRLSCAASGIIISYYTMGWYRQAPGKERELVAAITGSGGSTYYADSVKGRFTISRDNAKNTVYLQMNSLKPEDTAVYYCAADPSLRQYAYFDYYYWGQGTQVTVSS", "polyreactivity (PSR sort gate)": "low polyreactivity"}, {"sequence": "QVQLVESGGGLVQAGGSLRLSCAASGIILAFNAMGWYRQAPGKEREFVASISQGGSSTYYADSVKGRFTISRDYAKNTVYLQMNSLKPEVTAVYFCAARSSRVRSPYQRYYYWGQGTQVTVSS", "polyreactivity (PSR sort gate)": "high polyreactivity"}, {"sequence": "QVQLVESGGGLVQAGGSLRLSCAASGIILDPNAMGWYRQAPGKEREMVAGITRSGVSTYYADSVKGRFTISRDNAKNTVYLQMNSLKPEDTAVYYCANDRIYGSKGEDDDYWGQGTQVSVSS", "polyreactivity (PSR sort gate)": "low polyreactivity"}, {"sequence": "QVQLVESGGGLVQAGGSLRLSCAASGIILFYAMGWYRQAPGKERELVAAISSGGGTSYADSVKGRFTISRDNAKNTVYLHMNSLKPEDTAVYYCNADGYSYFWYPSYARGHDYWGQGTQVTVSS", "polyreactivity (PSR sort gate)": "low polyreactivity"}, {"sequence": "QVQLVESGGGLVQAGGSLRLSCAASGIILGKNAMGWYRQAPGNERELVASITSGAGITYYADSVKGRFTISRDNAKNTVNLQINSLKPEDTAVYYCAADWSGDYFTDGYWGQGPQVTVSS", "polyreactivity (PSR sort gate)": "low polyreactivity"}, {"sequence": "QVQLVESGGGLVQAGGSLRLSCAASGIILGYYAMGWYRQAPGKERELVAAITRSGGRTYYADSVKGRFTISRDNAKNTVYLQMNSLKPEDTGVYYCAADDPYTPQYPDVTYDYWGQGTQVTVSS", "polyreactivity (PSR sort gate)": "high polyreactivity"}, {"sequence": "QVQLVESGGGLVQAGGSLRLSCAASGIILPWNAMGWYRQAPGKERELVAAISWSGTSTYYADSVQGRFTISRDNAKNTVYLQMNSLKPEDTAVYYCAAAYWWSWRYDYWGQGTQVTVSS", "polyreactivity (PSR sort gate)": "low polyreactivity"}, {"sequence": "QVQLVESGGGLVQAGGSLRLSCAASGIILQSYTMGWYRQAPGKERELVAALTKSGGRTYYADSVKGRFTISRDNAKNTVYLQMNSLKPEDTAVYYCAAPLSYSYDYSGQGTQVTVSS", "polyreactivity (PSR sort gate)": "high polyreactivity"}, {"sequence": "QVQLVESGGGLVQAGGSLRLSCAASGIILRYYAMGWYRQAPGKEREMVAAISYSGGRTYYADSVKGRFTISRDNAKNTVYLQMNSLKPEDTAVYYCAADYGYRIIASYDYWGQGTQVTVSS", "polyreactivity (PSR sort gate)": "high polyreactivity"}, {"sequence": "QVQLVESGGGLVQAGGSLRLSCAASGIILSPYTMGWYRQAPGKERELVAGISRSGGTTYYADSVKGRFTISRDNAKNTVYLQMNSLKPEDTAVYYCAAGLIYGYSGYDSWGQGTQVTVSS", "polyreactivity (PSR sort gate)": "low polyreactivity"}, {"sequence": "QVQLVESGGGLVQAGGSLRLSCAASGIILTQNAMGWYRQEPGKVRELVAAITESGARTYYADSVMGRFTISRDTAQNTVYLQMNSLKPEATAVYYCATEGPWGYDYWGIGTQVTVSS", "polyreactivity (PSR sort gate)": "low polyreactivity"}, {"sequence": "QVQLVESGGGLVQAGGSLRLSCAASGIILYRNGMGWYRQAPGKERELVAVISRRGGTYYADSVKGRFTISRDNAKITVYLQLNSLKPEDTAVYYCAAYLSPIGNFRGGGDYWGQGTQVTVSS", "polyreactivity (PSR sort gate)": "high polyreactivity"}, {"sequence": "QVQLVESGGGLVQAGGSLRLSCAASGIISAGYAMGWYRQAPGKERELVAAISTSGTSTYYADSVKGRFTISRDNAKNTVYLQMNSLKPEDTAVYYCAYTYYYGVGYYYWGQGTQVTVSS", "polyreactivity (PSR sort gate)": "low polyreactivity"}, {"sequence": "QVQLVESGGGLVQAGGSLRLSCAASGIISIFNVMGWYRQAPGKERELVASITGRGGSTFYADSVKGRFTISRDNAKNTDYLQLNSLIPEDTAVYYCATDTGYTYPVTGLYDYWGQGTQVTVSS", "polyreactivity (PSR sort gate)": "low polyreactivity"}, {"sequence": "QVQLVESGGGLVQAGGSLRLSCAASGIISRYYAMGWYRQAPGKERELVASISSGVGTNYADSVKGRFTISRDNAKNTVYLQMNSLKPEDTAVYYCAARFRYYRHYYWGQGSQVTVSS", "polyreactivity (PSR sort gate)": "high polyreactivity"}, {"sequence": "QVQLVESGGGLVQAGGSLRLSCAASGIISSVYAMGWYRQAPGKERELVAAISGSGGSTYYADSVKGRFTISRDNAKNTVYLQMNSLKPEDTAVYYCAKGYQYQGNSYGYWGQGTQVTVSS", "polyreactivity (PSR sort gate)": "low polyreactivity"}, {"sequence": "QVQLVESGGGLVQAGGSLRLSCAASGIISTYYVMGWYRQAPGKERELVAAITGGDTSTYYADSVKGRFTISRDNAKKTVYLQMNSLKPEDTADYYCAKEYYYARGARYDYWGQGTQVTVSS", "polyreactivity (PSR sort gate)": "low polyreactivity"}, {"sequence": "QVQLVESGGGLVQAGGSLRLSCAASGIISTYYVMGWYRQAPGKERELVAAITGGGTYYADSVKGRFTISRDNAKNTVYLQMNSLKPEDTAVYYCAVDGTYAYGYSRDYDYWGQGTQVTVSS", "polyreactivity (PSR sort gate)": "low polyreactivity"}, {"sequence": "QVQLVESGGGLVQAGGSLRLSCAASGIISVRNTMGWYRQAPGKERELVAAISGSGGSTHYADSVKGRFTISRDNAKNTVYLQMNSLKTEDTEVYYCAVRSYGYWHFGYWGQGTQVTVSS", "polyreactivity (PSR sort gate)": "high polyreactivity"}, {"sequence": "QVQLVESGGGLVQAGGSLRLSCAASGIIYWDYAMGWYRQAPGKEREYVAAINTSGGTTTYADSVKGRFTISRDNAKNTVYFQMNSLKREDTAVYYCAADPWVYYSYAYYSWGQGTQVTVSS", "polyreactivity (PSR sort gate)": "low polyreactivity"}, {"sequence": "QVQLVESGGGLVQAGGSLRLSCAASGIIYYTYAMGWYRQAPGKERELVATISWDVDSTNYADSVKGRFTISRDNAKNTVYLQMNSLKPEDTALYYCAGDYTVDSYWYWVDYYEYGYWGQGTQVTVSS", "polyreactivity (PSR sort gate)": "high polyreactivity"}, {"sequence": "QVQLVESGGGLVQAGGSLRLSCAASGIMFFLYAMGWYRQAPGKERELVAAISSGGSTYYAVSVKGRFTISRDNAKNTVYLQMNSLKPEDTAVYYCNARYWPFRYYYWGQGTQVTVSS", "polyreactivity (PSR sort gate)": "high polyreactivity"}, {"sequence": "QVQLVESGGGLVQAGGSLRLSCAASGIMFTSNTMGSYRQAPGKEREFVASINWNGSSTYADSVKGRFTISRDNAKNTDYLQMNSLKPEDTAVYYCNADYNRNSVQFSLYDYWGQGTQVTVSS", "polyreactivity (PSR sort gate)": "low polyreactivity"}, {"sequence": "QVQLVESGGGLVQAGGSLRLSCAASGINFYDYAMGWYRQAPGKEREFVAAISWDGVSTYYADSVKGRFTISRDNAKNTVYLQMNSLKPEDTAVYYCAARAVTDDYYEFDYWGQGTQVTVSS", "polyreactivity (PSR sort gate)": "low polyreactivity"}, {"sequence": "QVQLVESGGGLVQAGGSLRLSCAASGINFYRYAMGWYRQAPGKERELVAAITGSGGNTYYADSVKGRFTISRDNAKNTVYLQMNSLKPEDTAVYYCAKRDYRHQYNYWGQGTQVTVSS", "polyreactivity (PSR sort gate)": "high polyreactivity"}, {"sequence": "QVQLVESGGGLVQAGGSLRLSCAASGINLFYYAMGWYIQAPGKETDFVAAISWSGGSTYYADSVKGRFTISRDNAQNTVYLQMNSLKPEDTALYYCAAKWYSYRWTQFDYWGQGTQVTVSS", "polyreactivity (PSR sort gate)": "high polyreactivity"}, {"sequence": "QVQLVESGGGLVQAGGSLRLSCAASGISFSYYAMGWSRQAPGKERELVAAISSSGSTNYADSVKGRFTISRDNAKNTVYLQMNSLKPEDTAVYYCNAGYGRRVYVYSFKLRYNYWGQGTQVTVSS", "polyreactivity (PSR sort gate)": "high polyreactivity"}, {"sequence": "QVQLVESGGGLVQAGGSLRLSCAASGISFTYNTMGWSRQAPGKESELVAAITSGGGTNYADSVKGRFTISRDNAKNTVYLQMNSLKPEDTAVYYCAKDPGTVGPIWYDYWGQGTQVTVSS", "polyreactivity (PSR sort gate)": "low polyreactivity"}]}]}
